Results: paper PMC4532887, “Structural and mechanistic insights into phospholipid transfer by Ups1–Mdm35 in mitochondria” (Nature Communications, 2015)
Each block holds one binder with its values, some of them ahead of it.

Key:
Conditions in all cases: both partners purified
[1] = biological target: T1, Ups1ΔC5 (Ups1 lacking the C-terminal five residues), N-terminally His6 tagged (S. cerevisiae, UniProt Q05776 1-170); assay: crystal structure; Ups1ΔC5–Mdm35ΔC5 complex without PA, 1.40 Å; sitting drop at 20 °C, 0.2 M ammonium citrate tribasic pH 7.0, 20% polyethylene glycol 3,350
T1 construct: Ups1, Saccharomyces cerevisiae; full length is 175 amino acids, this construct lacks the C-terminal five residues; No removal of the His6 tag is described; the complex with PA was purified again on Ni-NTA before crystallisation; also called His6-Ups1ΔC5; source: E. coli SHuffle T7, coexpressed with Mdm35ΔC5, purified (Ni-NTA, Superdex 200); not shown: His6, N-terminal, kept
T1 sequence (looked up): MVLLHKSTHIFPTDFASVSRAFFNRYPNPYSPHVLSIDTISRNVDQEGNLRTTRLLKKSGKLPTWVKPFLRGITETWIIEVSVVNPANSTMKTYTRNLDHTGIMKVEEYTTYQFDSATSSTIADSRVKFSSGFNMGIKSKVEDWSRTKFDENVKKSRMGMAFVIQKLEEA

[2] = biological target: T2, full-length His6-Ups1 R25E (S. cerevisiae, UniProt Q05776 1-175, R25E); assay: SEC; 10 μM full-length Ups1–Mdm35 complex (WT or mutant Ups1) after incubation with NBD-PA donor liposomes and centrifugation; supernatant on Superdex 200 10/300 GL; 20 mM Tris-HCl pH 7.5, 150 mM NaCl; absorbance at 280 and 460 nm
T2 construct: Ups1, Saccharomyces cerevisiae, full length (175 amino acids); source: E. coli SHuffle T7, coexpressed with Mdm35, purified (Ni-NTA, Superdex 200)
T2 sequence (looked up): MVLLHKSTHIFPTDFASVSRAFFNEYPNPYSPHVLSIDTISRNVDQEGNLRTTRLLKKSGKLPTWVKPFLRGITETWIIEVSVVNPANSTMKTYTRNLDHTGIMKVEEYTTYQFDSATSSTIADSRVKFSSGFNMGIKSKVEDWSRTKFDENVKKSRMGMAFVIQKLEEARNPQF

[3] = biological target: T3, full-length His6-Ups1 K61E/K155E (S. cerevisiae, UniProt Q05776 1-175, K61E | K155E); assay: as above
T3 construct: Ups1, Saccharomyces cerevisiae, full length (175 amino acids); source: E. coli SHuffle T7, coexpressed with Mdm35, purified (Ni-NTA, Superdex 200)
T3 sequence (looked up): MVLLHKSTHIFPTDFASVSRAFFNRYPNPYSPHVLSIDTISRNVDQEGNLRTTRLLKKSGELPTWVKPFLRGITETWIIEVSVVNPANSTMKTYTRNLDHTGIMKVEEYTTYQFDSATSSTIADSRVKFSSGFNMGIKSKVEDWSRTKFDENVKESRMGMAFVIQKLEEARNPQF

[4] = biological target: T4, full-length His6-Ups1 ΔLid (lacking the Ω1 loop, residues 62–71) (S. cerevisiae, UniProt Q05776 1-175, ΔLid (lacking residues 62–71)); assay: as above
T4 construct: Ups1, Saccharomyces cerevisiae, full length (175 amino acids) less residues 62-71; source: E. coli SHuffle T7, coexpressed with Mdm35, purified (Ni-NTA, Superdex 200)
T4 sequence (looked up): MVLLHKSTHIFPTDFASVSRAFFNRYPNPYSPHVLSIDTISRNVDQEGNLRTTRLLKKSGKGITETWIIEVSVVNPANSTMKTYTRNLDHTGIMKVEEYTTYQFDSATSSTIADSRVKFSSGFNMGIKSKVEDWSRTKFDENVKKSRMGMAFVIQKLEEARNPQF

[5] = biological target: T5, full-length His6-Ups1 R25K (S. cerevisiae, UniProt Q05776 1-175, R25K); assay: as above
T5 construct: Ups1, Saccharomyces cerevisiae, full length (175 amino acids); source: E. coli SHuffle T7, coexpressed with Mdm35, purified (Ni-NTA, Superdex 200)
T5 sequence (looked up): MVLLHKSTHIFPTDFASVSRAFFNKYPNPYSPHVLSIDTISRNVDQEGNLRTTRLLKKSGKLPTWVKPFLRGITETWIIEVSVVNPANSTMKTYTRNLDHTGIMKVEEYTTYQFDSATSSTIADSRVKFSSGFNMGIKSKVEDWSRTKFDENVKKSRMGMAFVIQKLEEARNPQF

[6] = biological target: T6, full-length His6-Ups1 K6E/K128E (S. cerevisiae, UniProt Q05776 1-175, K6E | K128E); assay: as above
T6 construct: Ups1, Saccharomyces cerevisiae, full length (175 amino acids); source: E. coli SHuffle T7, coexpressed with Mdm35, purified (Ni-NTA, Superdex 200)
T6 sequence (looked up): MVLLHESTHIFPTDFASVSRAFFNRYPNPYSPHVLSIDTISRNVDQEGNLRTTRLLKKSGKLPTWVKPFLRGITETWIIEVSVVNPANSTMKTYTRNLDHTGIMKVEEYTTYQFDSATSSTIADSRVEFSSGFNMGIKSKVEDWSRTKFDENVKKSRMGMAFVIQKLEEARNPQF

[7] = biological target: T7, full-length Ups1, N-terminally His6 tagged (from the His6–Ups1–Mdm35 complex) (S. cerevisiae, UniProt Q05776 1-175); assay: as above
T7 construct: Ups1, Saccharomyces cerevisiae, full length (175 amino acids); Added to the assays as the purified complex with Mdm35; also called WT Ups1; Ups1WT; source: E. coli SHuffle T7, coexpressed with Mdm35, purified (Ni-NTA, Superdex 200); not shown: His6, N-terminal, kept
T7 sequence (looked up): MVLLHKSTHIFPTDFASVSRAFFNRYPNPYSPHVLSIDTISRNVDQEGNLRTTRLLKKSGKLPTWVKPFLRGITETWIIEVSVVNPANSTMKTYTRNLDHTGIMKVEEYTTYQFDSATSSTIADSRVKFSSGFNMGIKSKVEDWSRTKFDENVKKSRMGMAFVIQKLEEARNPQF

[8] = biological target: T8, full-length His6-Ups1 N24C (S. cerevisiae, UniProt Q05776 1-175, N24C); assay: cross-linking; disulfide bond between Ups1N24C and Mdm35N25C on separate chains; SDS–PAGE with or without β-mercaptoethanol, CBB staining
T8 construct: Ups1, Saccharomyces cerevisiae, full length (175 amino acids); In the pull-down with GST-Mdm35: the chain set free from Mdm35N25C by pretreatment with DTT; source: E. coli SHuffle T7, coexpressed with Mdm35N25C, purified (Ni-NTA, Superdex 200); not shown: His6, N-terminal, kept
T8 sequence (looked up): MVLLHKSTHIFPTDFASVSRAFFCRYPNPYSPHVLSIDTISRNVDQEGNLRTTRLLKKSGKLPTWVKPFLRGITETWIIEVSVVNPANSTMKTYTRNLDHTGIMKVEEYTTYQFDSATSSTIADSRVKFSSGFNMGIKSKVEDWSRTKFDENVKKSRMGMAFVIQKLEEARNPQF

binding result [1]: binds
B1: Mdm35ΔC5 (Mdm35 lacking the C-terminal five residues) (domain or fragment, S. cerevisiae, UniProt O60200 1-81, looked up)
chain: MGNIMSASFAPECTDLKTKYDSCFNEWYSEKFLKGKSVENECSKQWYAYTTCVNAALVKQGIKPALDEAREEAPFENGGKL
notes: Mdm35, Saccharomyces cerevisiae; full length is 86 residues, this construct lacks the C-terminal five residues; The coexpression plasmid encodes GST-Mdm35ΔC5; the stated 31 kDa of the heterodimer implies that GST was no longer on the chain, but its removal from the complex is not described; For Mdm35 crystallised alone (4YTV) GST was cleaved with PreScission protease; Disulfides Cys13–Cys52 and …

binding result [2]: binds
binding result [3]: binds
binding result [4]: binds
binding result [5]: binds
binding result [6]: binds
binding result [7]: binds
B2: full-length Mdm35 (from the His6–Ups1–Mdm35 complex) (natural protein, S. cerevisiae, UniProt O60200 1-86, looked up)
chain: MGNIMSASFAPECTDLKTKYDSCFNEWYSEKFLKGKSVENECSKQWYAYTTCVNAALVKQGIKPALDEAREEAPFENGGKLKEVDK
notes: Mdm35, Saccharomyces cerevisiae, full length (86 residues); The coexpression plasmid encodes GST-Mdm35; also called Mdm35WT; source: E. coli SHuffle T7, coexpressed with His6-Ups1, purified (Ni-NTA, Superdex 200)

binding result [8]: binds
B3: full-length Mdm35 N25C (natural protein, S. cerevisiae, UniProt O60200 1-86, looked up)
chain: MGNIMSASFAPECTDLKTKYDSCFCEWYSEKFLKGKSVENECSKQWYAYTTCVNAALVKQGIKPALDEAREEAPFENGGKLKEVDK
notes: Mdm35, Saccharomyces cerevisiae, full length (86 residues); The coexpression plasmid encodes GST-Mdm35; removal of GST is not described; source: E. coli SHuffle T7, coexpressed with His6-Ups1N24C, purified (Ni-NTA, Superdex 200)
